Assay [1] deals with T1, MCL-1 (amino acid 1-172 portion) with a His6 tag, MBP and a TEV protease recognition sequence on the N … (UniProt Q07820 1-172).
T1 construct: range 1-172; Expressed in E. coli BL21 (DE3) RIPL, purified on Ni-NTA, dialysed; tags are not reported as removed; Immobilised by amine coupling on a CM5 chip for SPR; A different construct (3xFLAG-tagged, His6/MBP cleaved) was used for panning only; also called target protein; not shown: His6 tag from the pET28a construct; no cleavage is described for this preparation
T1 sequence (Q07820 1-172): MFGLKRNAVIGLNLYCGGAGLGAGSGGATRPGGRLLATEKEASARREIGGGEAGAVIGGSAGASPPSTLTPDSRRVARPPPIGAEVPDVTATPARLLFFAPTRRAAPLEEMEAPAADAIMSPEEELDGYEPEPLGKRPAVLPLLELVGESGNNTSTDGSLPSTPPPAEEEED
Kind of assay: SPR, Biacore T200, 25 C, Mcl-1 amine-coupled on CM5, peptide as analyte, equilibrium analysis; grade B = KD of 50 µmol/L or more. Here is the method: A buffer obtained by adding dimethylformamide (DMF) or dimethylsulfoxide (DMSO) to a final concentration of 1 vol % to HBS-EP+(manufactured by GE Healthcare Inc.) was used as a running buffer. Mcl-1 was immobilized on a Biacore Sensor Chip Series S Sensor Chip CM5 (manufactured by GE Healthcare Inc.) using an Amine Coupling Kit (manufactured by GE Healthcare Inc.). In order to measure the dissociation constant (KD), each synthetic peptide was added at multiple concentrations to obtain a sensorgram of binding to immobilized Mcl-1.
The analysis of the obtained sensorgram was carried out using T200 evaluation software (manufactured by GE Healthcare Inc.). Solvent correction to DMF or DMSO was carried out, and then the KD was determined by equilibrium value analysis using a sensorgram obtained by subtracting the sensorgram to a flow cell in which Mcl-1 is not immobilized.

The target in assay [2] is T1, MCL-1 (amino acid 1-172 portion) with a …. Kind of assay: SPR, Biacore T200, Mcl-1 immobilised on CM5, peptide as analyte, equilibrium analysis, as for Table 51; grade A = KD of less than 50 µmol/L. (SPR reads the build-up and loss of mass on a sensor chip optically.)

Positions of bridges follow the written chain, without caps; N, C: chain ends. Non-standard residues stand in square brackets, D forms with d. thiazoline = not defined here

B1: Cyclic peptide a-5-1 (peptide)
peptide: CRSWACLWPAFLWY[3‑(6-cyanopyridin-2-yl)Ala]-NH2
modifications: bridge N-15 via thiazoline; cysteine pairing not given here; reading uncertain
notes: MS 1957.6 (M+H); Structure itself only in a drawing
B1 came in with a Kd in assay [1] of at least 50 µM.

B2: Cyclic peptide a-5-3 (peptide)
peptide: CFALLWPQFLPLAF[3‑(6-cyanopyridin-2-yl)Ala]-NH2
modifications: bridge N-15 via thiazoline; reading uncertain
notes: MS 1821.3 (M+H); Structure itself only in a drawing
In the case of B2, the Kd in assay [1] was at least 50 µM.

B3: Cyclic peptide a-6-1 (peptide)
peptide: CEYCDPTFWPLFRR[3‑(5-cyanothiophen-3-yl)alanine]-NH2
modifications: bridge N-15 via thiazoline; cysteine pairing not given here; reading uncertain
notes: MS 1993.3 (M+H); Structure itself only in a drawing
Molecule B3 gave a Kd in assay [2] below 50 µM.

In general, Kd refers to a measure of binding affinity in units of concentration. A low value points to higher affinity.

These data come from US20200040039A1 (FUJIFILM, published 2020).
